B1: scFv 2H1 (scFv)
scFv: QQVQLVQSGAEVKKPGESLKISCKGSGYSFTSYWIGWVRQMPGKGLEWMGIIYPGDSDTRYSPSFQGQVTISADKSISTAYLQWSSLKASDTAMYYCARLVVRDTEIWGQGTMVTVSSAPQAKSSGSGSESKVDQAVVTQEPSLTVSPGGTVTLTCASSIGAVTSGNYPNWFQQRPGQPPRALIYSTSNKHSWTPARFSGSLLGGKAALTLSGAQPEDEAEYYCLLSYSGARPVFGGGTKLTVLGAAAGSEQKLISEEDLNSHHHHHH
notes: Made in E. coli from pACR.1-scFv 2H1, purified by IMAC; also called scFv 2H1 fragment; bacterial scFv 2H1

Experiments:
[1] = molecular target: T1, Isoform 120 of mouse VEGF-A (R&D) (mouse, UniProt Q00731-3 27-146); assay: ELISA on coated antigen (Table 6)
T1 construct: also called isoform 120 of murine VEGF
T1 sequence (looked up): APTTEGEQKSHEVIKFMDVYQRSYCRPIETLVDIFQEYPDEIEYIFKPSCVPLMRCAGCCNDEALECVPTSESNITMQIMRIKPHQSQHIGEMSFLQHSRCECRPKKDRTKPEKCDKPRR

[2] = molecular target: T1, Isoform 120 of mouse VEGF-A (R&D); assay: ELISA on coated antigen (Table 7)
[3] = molecular target: T1, Isoform 120 of mouse VEGF-A (R&D); assay: phage ELISA; + means OD at least 5 times the negative control
scFv 2H1 = molecular target: B1; assay: phage ELISA on coated scFv 2H1

Question: Does B1 bind [1]?
Answer: no binding (tested: 20 µg/mL)

B2: Fab 2H1-32 (Fab, V domains shown)
VH: QVQLVQSGAEVKKPGESLKISCKGSGYSFTSYWIGWVRQMPGKGLEWMGIIYPGDSDTRYSPSFQGQVTISADKSISTAYLQWSSLKASDTAMYYCARLVVRDTEIWGQGTMVTVSS
VL: QAVVTQEPSLTVSPGGTVTLTCASSIGAVTSGNYPNWFQQRPGQPPRALIYSTSNKHSWTPARFSGSLLGGKAALTLSGAQPEDEAEYYCLLSYSGARPVFGGGTKLTVLG
notes: Made in E. coli, purified by IMAC, purity close to 85%; also called Fab fragment 2H1-32; Fab produced in E. coli
Question: Does B2 bind [2]?
Answer: no binding (tested: 20 µg/mL)

B3: phage clone 2H1-F (scFv)
scFv: QQVQLVQSGAEVKKPGESLKISCKGSGYSFTSYWIGWVRQMPGKGLEWMGIIYPGDSDTRYSPSFQGQVTISADKSISTAYLQWSSLKASDTAMYYCARLVVRDTEIWGQGTMVTVSSAPQAKSSGSGSESKVDQAVVTQEPSLTVSPGGTVTLTCASSIGAVTSGNYPNWFQQRPGQPPRALIYSTSNKHSWTPARFSGSLLGGKAALTLSGAQPEDEAEYYCLLSYSGARPVFGGGTKLTVLG
modifications: Displayed on filamentous phage, fused to a coat protein that the letters do not carry.
notes: Tested as phage; also called scFv 2H1-F; original phage scFv (2H1-F); not shown: phage coat protein of the phagemid display format, with any tag or junction residues before it
Question: Does B3 bind [3]?
Answer: no binding

B4: peptide CCRTLMLLQYHR displayed in filamentous phage (peptide)
peptide: CCRTLMLLQYHR
notes: Tested as phage; also called peptide phage clones
Question: Does B4 bind (scFv 2H1)?
Answer: binds
